Results published in patent publication US6991909B2, “Enkurin and uses thereof” (University of Massachusetts, priority 2002, dated 2006).

B1: TRPC2336-361 peptide (peptide)
peptide: LPQHAATCGESPPPQPASPASLSSS
B2: enkurin (other)
chain: MDSPCTSESIYNLIPSDLKEPPQHPRYTSLFRATIKNDMKKFKTAMKTMGPAKVEIPSPKDFLKKHSKEKTLPPKKKFNRCSPKKPAVPLRTDHPVMGIQSGKNFINTNAADVIMGVAKKPKPIYVDKRTGDKHDLETSGLFPKYINKKDYGITPEYICKRNEDVKKAQEEYDNYIQENLKKAAMKRLSDEEREAVLQGLKKNWEEVHKEFQSLSVFIDSVPKKIRKQKLEKEMKQLEHDISVIEKHKIIYIANK

Experiments:
[1] = biological target: T1, enkurin-HA (Mus musculus (Mouse)) (UniProt Q6SP97); experiment: co-immunoprecipitation with anti-HA-Sepharose from HEK/TRPC2 cell extracts, blot with anti-RDAS; peptide competes with TRPC2
T1 sequence: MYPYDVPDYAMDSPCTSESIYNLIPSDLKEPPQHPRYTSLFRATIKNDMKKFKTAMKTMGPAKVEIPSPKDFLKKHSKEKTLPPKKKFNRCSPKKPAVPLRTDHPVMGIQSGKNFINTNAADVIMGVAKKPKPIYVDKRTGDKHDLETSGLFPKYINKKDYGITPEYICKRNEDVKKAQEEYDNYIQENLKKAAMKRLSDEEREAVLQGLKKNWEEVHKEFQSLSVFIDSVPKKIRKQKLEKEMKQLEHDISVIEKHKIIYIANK

[2] = biological target: T2, TRPC2 stably expressed in HEK-293 cells (mouse, UniProt Q9R244 1-1172); experiment: cell-based or functional assay
T2 sequence (looked up): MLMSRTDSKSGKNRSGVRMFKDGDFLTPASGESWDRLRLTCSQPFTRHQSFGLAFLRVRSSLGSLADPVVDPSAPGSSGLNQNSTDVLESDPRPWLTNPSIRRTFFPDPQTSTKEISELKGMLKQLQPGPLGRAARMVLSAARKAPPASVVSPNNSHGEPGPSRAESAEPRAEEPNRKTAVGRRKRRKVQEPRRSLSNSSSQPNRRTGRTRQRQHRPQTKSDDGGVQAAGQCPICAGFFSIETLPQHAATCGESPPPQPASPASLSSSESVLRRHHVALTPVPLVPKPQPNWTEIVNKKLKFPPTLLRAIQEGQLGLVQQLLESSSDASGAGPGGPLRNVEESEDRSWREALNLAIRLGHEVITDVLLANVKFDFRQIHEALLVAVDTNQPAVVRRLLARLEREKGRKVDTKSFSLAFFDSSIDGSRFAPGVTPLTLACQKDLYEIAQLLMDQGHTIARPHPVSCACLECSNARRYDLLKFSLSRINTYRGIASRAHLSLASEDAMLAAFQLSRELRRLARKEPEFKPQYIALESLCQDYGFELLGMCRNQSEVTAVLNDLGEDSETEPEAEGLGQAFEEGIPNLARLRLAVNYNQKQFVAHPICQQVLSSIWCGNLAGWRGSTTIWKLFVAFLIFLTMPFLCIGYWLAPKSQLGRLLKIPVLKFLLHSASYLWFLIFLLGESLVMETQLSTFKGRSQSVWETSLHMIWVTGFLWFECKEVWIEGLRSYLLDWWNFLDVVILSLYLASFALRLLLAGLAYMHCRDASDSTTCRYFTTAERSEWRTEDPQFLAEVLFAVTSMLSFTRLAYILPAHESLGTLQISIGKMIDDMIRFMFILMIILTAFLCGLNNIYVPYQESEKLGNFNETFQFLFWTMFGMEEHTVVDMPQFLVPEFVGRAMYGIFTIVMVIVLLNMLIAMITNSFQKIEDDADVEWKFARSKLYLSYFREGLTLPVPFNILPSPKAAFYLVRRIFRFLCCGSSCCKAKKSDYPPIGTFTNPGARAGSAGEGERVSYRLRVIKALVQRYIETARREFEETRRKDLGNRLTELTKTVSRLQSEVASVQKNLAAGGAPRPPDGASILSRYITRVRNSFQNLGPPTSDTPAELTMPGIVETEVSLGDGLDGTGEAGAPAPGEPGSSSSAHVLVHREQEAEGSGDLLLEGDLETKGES

TRPC2 channel = experiment: Perforated whole cell patch clamp of ATP-evoked currents in HEK-293 cells stably transfected with TRPC2; format: cell-based, mouse
Text: The effects of enkurin on the ion channel activity of TRPC2 were examined using HEK-293 cells that were stably transfected with TRPC2. HEK cells provide a good model for the study of receptor-activated ion channels since they have very low levels of endogenous ion channel activity and thus provide a relatively uncomplicated model for the study of exogenous channels. These cells also have endogenous […] receptors that regulate phospholipase C (PLC), thereby providing a facile and reversible means for activating PLC-dependent ion channels, HEK cells have been used to study TRPC2 function (Jungnickel et al., supra 2001).
In experiments on the TRPC2 channel in HEK cells, ion channel activity was measured using the perforated, whole cell patch clamp. This configuration permits the determination of ion currents while simultaneously maintaining cytoplasmic integrity.
ATP ([…]) evoked an inward current in TRPC2-expressing HEK cells (Derassi et al, 1998, Trends Cell Biol 8:84-87) that reaches peak amplitude in 20-30 seconds. However, when TRPC2 and enkurin were co-expressed (trace 2), the evoked current was 5-6 times larger (131+/−12 pA, n=5). This current activates about 25 times faster (peak amplitude in 0.5-1 seconds) and inactivates more rapidly. Total TRPC2 current, as estimated by integrating the areas beneath these traces, is increased nine +/−two-fold by enkurin. […] Anti-RDAS blocked >95% of the ATP-evoked current in cells that had been co-transfected with TRPC2 and with enkurin (trace 2). Thus, enkurin is stimulating TRPC2 currents, not acting at some undefined endogenous channel or forming a channel itself.
In the assay, HEK cells are used that constitutively express TRPC2. Such cell lines can be produced using methods known in the art. The line should express reproducible levels of TRPC2 current. In a line that we developed, enkurin increased the peak amplitude of ATP-evoked TRPC2 currents by >5-6 fold and the activation and inactivation rates by 25 fold. In addition, this signal can be “zero-ed” using anti-RDAS, the TRPC2 blocking antibody (FIG. 7). Given this magnitude of current enhancement by enkurin in such a cell line, even subtle effects of enkurin mutants, candidate compounds, or antisense molecules are detectable.

[3] = TRPC2 and enkurin co-expressed vs TRPC2 alone

| Molecule | reduction of co-immunoprecipitation of TRPC2 with enkurin-HA [1] [%] | activation rate of the ATP-evoked current [2] [fold] | total TRPC2 current (integrated area beneath traces) [2] [fold] | time to peak amplitude (TRPC2 channel; TRPC2 and enkurin co-expressed) [s] | current activates faster (TRPC2 channel; [3]) | increase of peak amplitude of ATP-evoked TRPC2 current (TRPC2 channel; [3]) | increase of total TRPC2 current, estimated by integrating areas beneath traces (TRPC2 channel; [3]) | ATP-evoked current (TRPC2 channel; TRPC2 and enkurin co-expressed, n=5) | stimulation of ATP-evoked current relative to TRPC2 alone (TRPC2 channel; enkurin co-expressed with deletion mutant of TRPC2 lacking the PKD1 domain) |
| --- | --- | --- | --- | --- | --- | --- | --- | --- | --- |
| B1 | > 90 |  |  |  |  |  |  |  |  |
| B2 |  | ~25 | 9 | 0.5 to 1 | about 25 times | 5-6 fold | nine +/−two | 131+/−12 pA | no stimulation |
